# Tested on: Escherichia coli TOP10
# Assay: shrunken log2 fold change of peptide-encoding DNA abundance (4.5 h post-induction vs induction); higher = less antimicrobial activity (less host growth inhibition)
# Conditions: time post-induction: 4.5 h; library: site-saturation at positions 5, 18, 19, 20
# 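Note: peptides expressed intracellularly from a pBAD plasmid library in pooled LB shake-flask culture, induced with 0.3% L-arabinose, DNA abundance read by NGS, three biological replicates, DESeq2 with apeglm shrinkage.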
row,Sequence,shrunken log2 fold change
1,RRIRCRPPRLPRPRPRPMAAPRP,0.476
2,RRIRRRPPRLPRPRPRPMDIPRP,-0.168
3,RRIRTRPPRLPRPRPRPVIVPRP,-0.314
4,RRIRTRPPRLPRPRPRPVLQPRP,4.38
5,RRIRVRPPRLPRPRPRPSLKPRP,0.215
6,RRIRGRPPRLPRPRPRPGKHPRP,0.384
7,RRIRPRPPRLPRPRPRPLHFPRP,-0.207
8,RRIRARPPRLPRPRPRPSNMPRP,-0.28
9,RRIRYRPPRLPRPRPRPRKWPRP,0.149
10,RRIRSRPPRLPRPRPRPGADPRP,0.463
11,RRIRQRPPRLPRPRPRPPLVPRP,0.931
12,RRIRFRPPRLPRPRPRPYAWPRP,-0.134
13,RRIRFRPPRLPRPRPRPVCWPRP,0.399
14,RRIRQRPPRLPRPRPRPEGCPRP,-0.0749
15,RRIRVRPPRLPRPRPRPWNAPRP,-0.0893
16,RRIRRRPPRLPRPRPRPTRTPRP,0.681
17,RRIRNRPPRLPRPRPRPHRSPRP,0.283
18,RRIRHRPPRLPRPRPRPHHCPRP,-0.152
19,RRIRSRPPRLPRPRPRPDQAPRP,-0.107
20,RRIRQRPPRLPRPRPRPVLSPRP,-0.0147
21,RRIRGRPPRLPRPRPRPKWLPRP,0.749
22,RRIRARPPRLPRPRPRPRQDPRP,0.34
23,RRIRARPPRLPRPRPRPIPKPRP,0.394
24,RRIRGRPPRLPRPRPRPVMTPRP,1.8
25,RRIRIRPPRLPRPRPRPYSVPRP,-0.07

row,Sequence,shrunken log2 fold change
1,RRIRFRPPRLPRPRPRPTFFPRP,-0.169
2,RRIRMRPPRLPRPRPRPCQYPRP,0.0396
3,RRIRARPPRLPRPRPRPLSLPRP,-0.0486
4,RRIRFRPPRLPRPRPRPHTNPRP,-0.453
5,RRIRPRPPRLPRPRPRPRCSPRP,0.00477
6,RRIRWRPPRLPRPRPRPRTSPRP,-0.0212
7,RRIRERPPRLPRPRPRPLNFPRP,-0.34
8,RRIRTRPPRLPRPRPRPHVWPRP,0.272
9,RRIRNRPPRLPRPRPRPMMTPRP,-0.312
10,RRIRHRPPRLPRPRPRPIGVPRP,0.148
11,RRIRFRPPRLPRPRPRPHLLPRP,-0.428
12,RRIRCRPPRLPRPRPRPWWAPRP,1.27
13,RRIRTRPPRLPRPRPRPEESPRP,-0.0116
14,RRIRDRPPRLPRPRPRPELWPRP,2.17
15,RRIRKRPPRLPRPRPRPWECPRP,0.033
16,RRIRRRPPRLPRPRPRPKNIPRP,-0.136
17,RRIRWRPPRLPRPRPRPIFNPRP,-0.217
18,RRIRDRPPRLPRPRPRPVQSPRP,-0.0116
19,RRIRGRPPRLPRPRPRPLHHPRP,0.452
20,RRIRARPPRLPRPRPRPCPRPRP,0.898
21,RRIRTRPPRLPRPRPRPQKAPRP,0.00748
22,RRIRWRPPRLPRPRPRPFEHPRP,-0.113
23,RRIRQRPPRLPRPRPRPWDFPRP,0.2
24,RRIRERPPRLPRPRPRPSSVPRP,-0.306
25,RRIRLRPPRLPRPRPRPGEQPRP,0.0657

row,Sequence,shrunken log2 fold change
1,RRIRARPPRLPRPRPRPDSHPRP,-0.779
2,RRIRHRPPRLPRPRPRPAPVPRP,0.466
3,RRIRGRPPRLPRPRPRPPTVPRP,1.12
4,RRIRSRPPRLPRPRPRPLLGPRP,0.0218
5,RRIRSRPPRLPRPRPRPSWFPRP,-0.268
6,RRIRCRPPRLPRPRPRPMNSPRP,-0.141
7,RRIRGRPPRLPRPRPRPWEMPRP,0.0928
8,RRIRKRPPRLPRPRPRPLLVPRP,0.372
9,RRIRCRPPRLPRPRPRPQYSPRP,-0.273
10,RRIRKRPPRLPRPRPRPGDHPRP,0.014
11,RRIRYRPPRLPRPRPRPLIAPRP,-0.668
12,RRIRCRPPRLPRPRPRPMKWPRP,0.0655
13,RRIRYRPPRLPRPRPRPHLTPRP,-0.466
14,RRIRTRPPRLPRPRPRPEVNPRP,0.131
15,RRIRGRPPRLPRPRPRPARCPRP,0.749
16,RRIRCRPPRLPRPRPRPDLSPRP,0.0851
17,RRIRRRPPRLPRPRPRPMLSPRP,0.00534
18,RRIRRRPPRLPRPRPRPLCNPRP,0.0189
19,RRIRPRPPRLPRPRPRPGFPPRP,0.355
20,RRIRRRPPRLPRPRPRPVSAPRP,0.588
21,RRIRARPPRLPRPRPRPEGVPRP,1.1
22,RRIRARPPRLPRPRPRPHPQPRP,0.45
23,RRIRMRPPRLPRPRPRPWTDPRP,-0.035
24,RRIRIRPPRLPRPRPRPGATPRP,-0.0576
25,RRIRGRPPRLPRPRPRPSMPPRP,0.0931

row,Sequence,shrunken log2 fold change
1,RRIRFRPPRLPRPRPRPIVYPRP,-0.181
2,RRIRFRPPRLPRPRPRPNTLPRP,-0.239
3,RRIRRRPPRLPRPRPRPYGTPRP,-0.231
4,RRIRLRPPRLPRPRPRPLNKPRP,-0.264
5,RRIRCRPPRLPRPRPRPLDGPRP,-0.151
6,RRIRERPPRLPRPRPRPQYPPRP,-0.208
7,RRIRNRPPRLPRPRPRPAIPPRP,-0.202
8,RRIRMRPPRLPRPRPRPKMLPRP,0.231
9,RRIRKRPPRLPRPRPRPQMVPRP,-0.0031
10,RRIRYRPPRLPRPRPRPVNRPRP,-0.655
11,RRIRARPPRLPRPRPRPCATPRP,1.06
12,RRIRKRPPRLPRPRPRPFWKPRP,0.0342
13,RRIRRRPPRLPRPRPRPDSAPRP,0.288
14,RRIRNRPPRLPRPRPRPETHPRP,-0.0861
15,RRIRMRPPRLPRPRPRPFQRPRP,-0.0335
16,RRIRNRPPRLPRPRPRPEVNPRP,-0.0723
17,RRIRMRPPRLPRPRPRPFGRPRP,-0.00674
18,RRIRFRPPRLPRPRPRPMHHPRP,-0.449
19,RRIRYRPPRLPRPRPRPAIVPRP,-0.0768
20,RRIRSRPPRLPRPRPRPKQWPRP,0.474
21,RRIRDRPPRLPRPRPRPAKCPRP,0.124
22,RRIRHRPPRLPRPRPRPFRNPRP,-0.221
23,RRIRCRPPRLPRPRPRPNGVPRP,-0.216
24,RRIRNRPPRLPRPRPRPPHDPRP,0.114
25,RRIRWRPPRLPRPRPRPSHYPRP,-0.557

row,Sequence,shrunken log2 fold change
1,RRIRHRPPRLPRPRPRPRHRPRP,-0.029
2,RRIRPRPPRLPRPRPRPSRFPRP,0.227
3,RRIRRRPPRLPRPRPRPHFMPRP,-0.141
4,RRIRRRPPRLPRPRPRPKCHPRP,0.0704
5,RRIRDRPPRLPRPRPRPSHKPRP,-0.373
6,RRIRGRPPRLPRPRPRPNGHPRP,0.197
7,RRIRMRPPRLPRPRPRPYPAPRP,-0.246
8,RRIRQRPPRLPRPRPRPLFQPRP,0.866
9,RRIRIRPPRLPRPRPRPQPQPRP,0.0386
10,RRIRMRPPRLPRPRPRPKVLPRP,0.0109
11,RRIRNRPPRLPRPRPRPWRSPRP,0.111
12,RRIRYRPPRLPRPRPRPWSRPRP,-0.205
13,RRIRPRPPRLPRPRPRPNDIPRP,-0.632
14,RRIRVRPPRLPRPRPRPGYMPRP,-0.37
15,RRIRPRPPRLPRPRPRPWNVPRP,-0.052
16,RRIRMRPPRLPRPRPRPVAVPRP,0.55
17,RRIRPRPPRLPRPRPRPKKVPRP,0.0308
18,RRIRQRPPRLPRPRPRPWFSPRP,-0.102
19,RRIRLRPPRLPRPRPRPFETPRP,-0.241
20,RRIRHRPPRLPRPRPRPNSHPRP,-1.09
21,RRIRVRPPRLPRPRPRPCYRPRP,-0.00925
22,RRIRSRPPRLPRPRPRPIVAPRP,0.0103
23,RRIRVRPPRLPRPRPRPPNRPRP,0.144
24,RRIRMRPPRLPRPRPRPHVQPRP,-0.0996
25,RRIRFRPPRLPRPRPRPIYIPRP,-0.832

row,Sequence,shrunken log2 fold change
1,RRIRMRPPRLPRPRPRPEPTPRP,2.58
2,RRIRLRPPRLPRPRPRPVILPRP,-1
3,RRIRQRPPRLPRPRPRPFMKPRP,-0.0158
4,RRIRTRPPRLPRPRPRPEYIPRP,0.00825
5,RRIRIRPPRLPRPRPRPRFHPRP,-0.42
6,RRIRIRPPRLPRPRPRPLYIPRP,-0.695
7,RRIRMRPPRLPRPRPRPGYCPRP,0.0615
8,RRIRRRPPRLPRPRPRPCRGPRP,0.17
9,RRIRIRPPRLPRPRPRPICFPRP,-0.152
10,RRIRWRPPRLPRPRPRPEWVPRP,0.927
11,RRIRRRPPRLPRPRPRPYLQPRP,-0.548
12,RRIRRRPPRLPRPRPRPAGSPRP,0.384
13,RRIRSRPPRLPRPRPRPWHIPRP,-0.0156
14,RRIRERPPRLPRPRPRPCRHPRP,-0.00171
15,RRIRTRPPRLPRPRPRPRHIPRP,-0.158
16,RRIRRRPPRLPRPRPRPHWAPRP,-0.17
17,RRIRDRPPRLPRPRPRPYAGPRP,0.0325
18,RRIRGRPPRLPRPRPRPYCQPRP,-0.32
19,RRIRDRPPRLPRPRPRPVMMPRP,-0.168
20,RRIRWRPPRLPRPRPRPWFKPRP,-0.123
21,RRIRYRPPRLPRPRPRPELAPRP,-0.0264
22,RRIRCRPPRLPRPRPRPSLTPRP,-0.538
23,RRIRMRPPRLPRPRPRPSWYPRP,-0.506
24,RRIRPRPPRLPRPRPRPGMLPRP,-0.0338
25,RRIRTRPPRLPRPRPRPYPFPRP,-0.0603

# — the supplement of paper PMC9112550, “Optimization of the antimicrobial peptide Bac7 by deep mutational scanning” (BMC Biology, 2022)
